Experiment: yeast display, Sf9 membrane polyspecificity reagent, FACS + sequencing; frameworks hold sequencing errors
How it was run: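 Polyreactivity labels are assigned by the sorting gate from which each nanobody was recovered. The gates were low and high (top ~1%), set on anti-HA fluorescence for expression and streptavidin fluorescence for reagent binding. Before sorting, galactose-induced (36–48 hours) yeast display cells were stained for 1 hour at 4 °C with 10% biotinylated, detergent-solubilized Sf9 membrane reagent.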

| Sequence | polyreactivity (PSR sort gate) |
| --- | --- |
| QVQLEESGGGLVQAGGSLRLSCAASGSIFAPYVMGWYRQATGKERELVAAITESGGRTYYADSVKGRFTISRDNAKNTVYLQMNSLKPEDTAVYYCAARTYDRNRQLRRQWYDYWGQGTQVTVSS | high polyreactivity |
| QVQLVESGGGLVQEGGSLRLSCAASGFTLYGYTMGWYRQAPGKERELVAAISGSGGRTYYADSVKGRFTISRDNAKNTVYLQMNSLKPEVTEVYYCAADSRGTWYGYDYWGQGTQVTVSS | high polyreactivity |
| QVQLVESGGGLVQAGGSLRLSCAASGGTFSQYAMGWYRQAPGKERELVARISRRGGSTSYADSVKGRFTISRDNAKNTVYLQMNSLKPEDTAVYYCAKDAPSVYPGRFGNTGGYAYDYWGQGTQVTVSS | high polyreactivity |
| QVQLVESGGGLVQAGGSLRLSCAASGITFPQNAMGWYRQAPGKERELVATIDNVGSTNYADSVKGRFTISRDNAKNTVYLQMNSLKPEDTAGYYCAKDYDWTLDYDGYPGYDYWGQGTQVTVSS | high polyreactivity |
| QVQLVESGGGLVQAGGSLRLSCAASGSIFFYYAMGRYRQARGKERQLVAAISYSDGTTYYADSVKGRFTISRDNAKNTVYLQMNSLKPEDTAVYYCAADLWVGLVTLWDGYVQYDYWGQGTQVTVSS | low polyreactivity |
| QVHLVESGGGLVQAGGSRRLSCAASGRISTLNALGWYRQAPGKVWEFVAAISWRGGSTYYADSVKGRFTISRDNAKNTVYVQMNSLKPEDTAVYYCAARPYTLAFYRFGYWGQGTKVTVSS | high polyreactivity |
| QVQLVESGGGLVQAGGSLRLSCAASGRIFASYAMGWYRQAPGKERELVASISWGGGSRTYADSVKGRFTISRDNAKNTVYLQMNSLKPEDTAVYYCAADVHYTFGMDYWGQGTQVTVSS | high polyreactivity |
| QVQLVESGGRLVEAGGSLSLSWAASGRIFPKYPMGWYRQAPGKERELVAAISRRGSSTYYADSVQGRFTISRDNAKNTVYLQMNSLTPEDTAVYYCATDARDGHDYWGQGSQVTVSS | high polyreactivity |
| QVQLVESGGGLVQAGGSLRLSCAASGFIFRNYAMGWYRQAPGKERELVAAITRSGTSTYYADSVKGRFTISRDNAKNTVYLQMNSLKPEDTAVYYCAARAWSSRRRLMYYWGQGTQVTVSS | high polyreactivity |
| QVQLVESGGGLVQAGGSLRLSCAASGSIFSGNAMGGYRQAPGKERELVAAISRTGTRTFYADSEKGRFTISRDNAKNTVYLQMNSLKPEDTAVYYCAADNPDGDGYDYWGQGTQVTVSS | high polyreactivity |
| QVQLVESGAGLVQAGGSLRLSCAASGSILDEYAMGWYRQPPGKERELVAAISSSGTSTYYADSVKGRFTISRDNAKNTVYLQMNSLKPEDTAVYYCARVKQHTSHRVPGDDYWGQGTQLTVSS | low polyreactivity |
| QVQLVESGGGLVQAGGRLRLSCAASGRIFYYYAMGWYRQAPGKERELVAAINRSGGSTYYADSVKGRFTISRDNAKNTVYLQMNSLKPEDTAVYSCASYDYWGQGTQVTVSS | high polyreactivity |
| QVQLVESGGGLVQAGGSLRLSCAASGSTIRYNAMGWYRQAPGKERELVAAISRTGGTTYYADSVKGRFTISRDNAKNTVYLQMNSLKPEDTAVYYCNAVQAPYLRYDYWGQGTQVTVSS | high polyreactivity |
| QVQLVESGGGLVQAGGSLRLSCAASGSIFRYYAMGWYRQAPGKERELVATISSSGGTTYYADSVKGRFTISRDNAKNTVYLQMNSLKPEDTAVYYCAALWTWHVSYPVHEYDYWGQGTQVTVSS | low polyreactivity |
| QVQLVESGGGLVQAGGSLRLSCAASGRILSSYAMGWNRQAPGKERELVAVISSGGNTYYADSVKGRFTISRDNAKNTVFLQMNSLKPEDTAVYYCNAARRGYLRRYYWGQGTQVNVSS | high polyreactivity |
| QVQLVESGGGLVQAGGSLRLICAASGRTCWKYVMGWYRQAPGKERDLVAVISSDGITNYADSVKGRFTISRDNAKNTVYLQMNSLKPEDTAVYYCNAGPDDYVGYWGKYDYWGQGTQVTVSS | low polyreactivity |
| QVQLVESGGGLVQAGGSLRLSCAASGRIFDHYTLGWYRQAPGKERDFVAAISSSGGSTYYADSVKGRFTSSRDTAKNTVYLQLNSLKPEDTAVYDCAAVYHRLWGYDYWGQGPQVTVSS | high polyreactivity |
| QVQLVESGGGLVQAGGSLRLSCAASGRTFAFYGMGWYRQAPGKERELVATIRGTGGSTYYADSVKGRFTISRDNAKNTVYLQMNSLKPEDTAVYYCNKYLGIQVGSVPHDYWGQGSQVTVSS | high polyreactivity |
| QVQLVESGGGLVQAGGSLRLSCAASGRTFRRYAMGWYRQAPGKERELVAAISRTGSTNNYADSVKGRFTISRDNAKNTVYLQMNSLIPEDTAVYYCKRQHNLGYGYDYWGQGTQVTVSS | high polyreactivity |
| QVQLEESGGGLVQAGGSLRLSCAASGSIFKFYAMGWYRQAPGKEREFVAAIRQSGGRTYYADSVKGRFTISRDNAKNTVYLPMNSLKPEDTAVYYCAADGYYWEYYYWGQGTQVTVSS | high polyreactivity |
| QVQLVESGGGLVQAGGSLRLSCAASGSTLYSYAMGWSRQAPGKEREFVAAITSDDGSTYYADSVKGRFTISRDNAKNTVYLQMNSLKPEDTAVYYCATAGSVEYNYWGQGTQVTVSS | low polyreactivity |
| QVQLVESGGGLVQAGGSLRLSCAASGFIFRGKAMGWYRQAPGKERELVAAISSRGGSTYYADSVKGRFTISRDNAKNSVYLQMNSLKPEDTAVYYCAAGSTSGYFRYYYWGQGTQVTVSS | high polyreactivity |

| Sequence | polyreactivity (PSR sort gate) |
| --- | --- |
| QVQLQESGGGLVQAGGSLRLSCAASGSIFHLHIKCWYRQAPGKERESVAAISYGTSTYYADRVKGRFTICRDNAKNTVYLQMNSPKPDDTAVYYCAALFLVSKHHHYWGEGTQVTVSS | low polyreactivity |
| QVQLVESGGGLVQAGGSLRLSCAASGRIFQINAMGWYRQAPGKERELVAAISWSDDTTYYADSVKGRFTISRDNAKNTVYLQMISLKPEDTAVYYCAAERGQDYSYSGDDDYWGQGTQVTVSS | high polyreactivity |
| QVQLVESGGGLVQAGGSLRLSCAASGRIFIQNTMGWYRQAPGKERELVAAITRSGGRTYYADSVKGRFTISRDNAKNTVYLQMNSLKPEDTAVYYCAAVARTVPSYSYNYWGQGTQVTVSS | high polyreactivity |
| QVQLVESGGGLVQAGGSLRLSCAATGFTFGRYAMGWYRQAPGKERELVAAITWSGGSTYYADSVKGRFTISRDNAKNTVYLQMNSLKPEDTAVYYCNRLSNNREYDYWGQGTQVTVSS | high polyreactivity |
| QVQLVESGGGLVQAGGSLRLSCAASGSIFPYNAMGWYRQAPGKERELVAAITQSGGSTYYADSVKGRFTISRDNAKNTVYLQMNSLQPEDTAVYYCAADDYGPEGDYWGQGTQVTVSS | low polyreactivity |
| QVQLVESGGGLVQAGGSLRLSCAASGSIFPVYAMGWYRQAPGKERELVAAISSRGGRTYYADSVKGRFTISRDNAKNTVYLQMNSLKPEDTAVYYCAAVPYPSYYDTGYDYWGQGTQVTVSS | low polyreactivity |
| QVQLVESGGGLVQAGGSLRLSCAASGRTFTEYAMGWYRQAPGKERELGAGIDSGSGSTYYADSVKGRFTISRDYAKNTVYLQMNSLHPEDTAVYYCAARDVWSPYDTDVDYWGQGTQVTVSS | low polyreactivity |
| QVQLVESGGGLVQAGGSLRLSCAASGSTFGRYAMGWYRQAPGKERELVAAISARGGSTYYADSVKGRFTISRDNAKNTVYLQMNSLKPEDTAVYYCNVDYLLHGGRFDYWGQGTQVTVSS | high polyreactivity |
| QVQLVESGGGLVQAGGRLRISCAASGTIFYSYEMVWYRKAPAKERELVAAITQSGSSTYYADSVKGRFTISRDNAKNTVYLQMNSLKPEDTAVYYCAAVSRRHPTMSDYWGQGTQVTVSS | high polyreactivity |
| QVQLVESGGGLVQAGGTLRLSCAASGRTFNTYAMGWYRQAPGKERELVAAISSGGRTYYADSVKGRFTISRDNAMLTVYLQMNSLKPEDTAVYYCAAKRFQYRTLYEFWGLGTQVTVSS | high polyreactivity |
| QVQLVESWGGLVQAGGSLRLSCAASGIIFRTYAMGWYRQAPWKERELVAAINSDGSTYYADSVKGRFTISRDNAKNTVYLQMNSLKPEDTAVYYCAATYGRSRKDGYWGQGTQVTVSS | high polyreactivity |
| QVQLVESGGGLVQAGGSLRLSCAASGSIFVLYAMGWYRQAPGKEREFVAAISRSGGSTYYADSVKGRFTISRDNAKNTVYLQMNSLKPEDTAVYYCAASSRLNRWNYYAFDYWGQGTQVTVSS | high polyreactivity |
| QVQLVESGGGLVQAGGSLRLSCAASGFNFDGNAMGWYRQEPGKEMELVARITWDDGSTYYADSVKGRFTISRDNAKNTVYLQMNSLKPEDTAVYYCNTDYGEYYSLDLLWWYIPYDYWGQGTQVTVSS | low polyreactivity |
| QVQLVESGGGLVQAGGSLRLSCAASGSTFYLYAMGWYRQAPGKERELVAVITTDGSTTYADSVKGRFTISRDNAKNTVYLQMNSLKPEDTAVYYCAAYGGNGQYYSQYDYWGQGTQVTVSS | low polyreactivity |
| QVQLVESGGGLVQAGGSLRLSCAASGIIFYRSVMGWYRQAPGKERELVAAITSGGSTNYADSVKGRFTISRDNAKNTVYLQMNSLKPEDTAVYYCAAVPRYRRWKYDYWGQGTQVTVSS | high polyreactivity |
| QVQLVESGGGLVQAGGSLRLSCAASGIIFRYNAMGWYRQAPGKERELVADITFSVGSTNYADSVKGRFTISRDNAKNTVYLQMNSLKPEDTAVYYCAAKFHSTYGNDDWGQGTQVTVSS | low polyreactivity |
| QVQLVESGGGLVQAGGSLRLSCAASGIIFGRYAMGWYRQSPGKERELVAAISSRGGSTYYADSVKGRFTISRDNAKNTVYLQMNSLKPEDTAVYYCAATWGYLRGSTNYYYWGQGTQVTVSS | high polyreactivity |
| QVQLVESGGGLVQAGVSLRISSAASGLIFGSNAMGWYRQAPGIERELVAAISWRGGSTYYADSVKGRFTISRDNAKKTVSCQMNSLKPEDTAVYYCAKYPYYYYWFNYCGQGTQVTVSS | high polyreactivity |
| QVQLVESGGGLVQAGGSLRLSCAASGSTFYRNAMGWYRQAPGKERELVAAITSRGTRTFYADSVKGRFTISRDNAKNTVYLQMNSLKPEDTAVYYCAVTYQAEDEYDYWGQGTQVTVSS | low polyreactivity |
| QVQLVESGGGLVQAGGSLRLSCAASGSIIDYYARGWYRQAPGKERELVAAISDSGSTYYADSVKGRFTISRDNAKNTVYLQMNSLKPEDTAVYYCAAVLWSPYRSEPLDTYEYWGQGTQVNVSS | low polyreactivity |
| QVQLVESGGGLVQAGGSLRLSCAASGLIFPRYGMGGYRPAPGKERELVAAITRGGSTYYADSVKGRFTISRDNAKNTVYLQMNSLKPEDTAVYYCIAELPVHWSWYDYWGHGTQVTVSS | low polyreactivity |

Source: the nanobody polyreactivity screen of Harvey et al. (2022)
